41 sequences from the nanobody polyreactivity screen of Harvey et al. (2022) can be followed below.

The data set is described as follows: yeast display, Sf9 membrane polyspecificity reagent, FACS + sequencing; frameworks hold sequencing errors. In a few lines:
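In a synthetic yeast display library (Saccharomyces cerevisiae BJ5465), nanobody expression was induced with galactose for 36–48 hours. FACS gates were set low and high (top ~1%) using anti-HA fluorescence for expression and streptavidin fluorescence for binding of the Sf9 membrane reagent. Each polyreactivity label is drawn from the gate of origin.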
For the sequence “QVQLVESGGGLVQAGGSLRLSCAASGIIIKNYSMGWYRQAPGKEREFVAAISYSGTNTYYADSVKGRFTISRDYAKNTVYLQMNSLKPEDTAVYYCARRKTVVYLAGGRRDYYSWGQGTQVTVSS”, the “polyreactivity (PSR sort gate)” value is recorded as “high polyreactivity”.
Consider “QVQLVESGGGLVQAGGSLRLSCAASGIIFPYYTMGWYRQAPGKERELVARITNGGRTYYADSVNGRFTISRDNAKNTVYLQMNSLKPEDTAVYYCNAGRYYIGGYWGQGTQVTVSS”, for which the “polyreactivity (PSR sort gate)” value was “high polyreactivity”.
Regarding “QVQLVESGGGLVQAGGSLRLSRAASGSTFVENAMGWYRQAPGKERELVAAISSSGDSTFYADSVKGRFTISRDNAKNTVYLQMNSLKPEDTAVYYCAADRRINYDGLDMDYWGQGTQVTVSS”, the “polyreactivity (PSR sort gate)” value is on record as “low polyreactivity”.
For “QVQLVESGVGLVQAGGSLRLSCAASGRIFAYNAMGWYRQAPGKERELVAAISSSDDDTYYADSVKGRFTISRDNAKNTVYLQMNSLKPEDTAGYYCAAEWDTDRLWAGPRGSLYDYWGQGTQVTVSS”, the “polyreactivity (PSR sort gate)” value is reported as “high polyreactivity”.
For “QVQLVESGGGLVQAGGSLRLSCAASGRTFAGYAMGWYRQAPGKERELVAGITTSGGITYYADSVKGRFTISRDNAKNTVYLQMNSLKPEDTAVYYCNTGYYGRLRDDYWGQGTQVTVSS”, the “polyreactivity (PSR sort gate)” value is given as “high polyreactivity”.
The result for “QVQLVESGGGLVQAGGSLRLSSAASGSTFPDYDMGWYRQAPGKERELVAAITSSGGITYYADSVKGRFTISRDNAKNTVYLQMNSLKPEDTSVSYCAAYGYGSNYRYTGYYYWGQGTEVTVSS” reads “low polyreactivity”; that for “QVQLVESGGGLVQAGGSQRLSCDSSGSTFRYYAMGWYRPAPGKQRELVAVITWNGGGTYYADSMKGRFTISRDNAKNNVYLHMNSLKPVDTAVYYCAADASLYTDEYDNWGLGTQVTVSS”, “low polyreactivity”; that for “QVQLVESGGGLVQAGGSLRLSCAASGSIFDYYTMGWYRQAPGKERELVAVIDNSGGSTYYADSVKGRFTISRDNAKNTVYLQMNSLKPEDTAVYYCARRFYNYVSYSNGGATLYDYWGQGTQVTVSS”, “high polyreactivity”.
In the case of “QVQLVESGGGLVQAGGSLRLSCAASGFTFIQYAMGWYRQAPGKERELVAAITRSGGRTYYADSVKGRFTISRDNAKNTVFLQMNSLKPEDTAVYYCNADRTRGYQRYDYWGQGTQETVSS”, the “polyreactivity (PSR sort gate)” value was “high polyreactivity”.
Turning to “QVQLGESGGGLVQAGGSLRLSCAASGSIFRGYTMGWYRQAPGKERELVAGISFSGTRTYYADSVKGRFTISRDNAKNTVYLQMNSLKPEDTAVYYCAAVSPYGSQYGYWGQGTQVTVSS”, the “polyreactivity (PSR sort gate)” value is recorded as “high polyreactivity”.
Then “QVQLLESGGGLVQAGGSLRLSCAASGITFPYYAMGWYRQAPGKERELVAAISSSGGSTYYADSVKGRFTISRDIAKNTVYLQMNSLKPEDTAVYYCAAQRYINYDYWGQGTQVTVSS”, with “high polyreactivity”; and “QVQLVESGGGLVQAGGSLRLSGAASGTLYINLMGWYRQATGKERDLVAAISSNGARTYYADSVKGRFTISRDNAKNTVYLQMNSLKPDDTAVYYSNRVASVRARDYDYWGQGTQVTVSS”, with “high polyreactivity”.
“QVQLVESGGGLVQAGGSLRLSCAASGRTFRWYAMGWYRQAPGKERELVATITSGGSTNYADSVKGRFTISRDNAKNSVYLQMNSLKPEDTAVYYCAAWSYAYYYRLRYVSHDYWGQGTQVTVSS”: the “polyreactivity (PSR sort gate)” value is “high polyreactivity”.
With “QVQLVESGGGLDQAGGSLRLSCAASGLIFYYYAMGWYRQAPGKERELVAAISSNGGSTYYADSVKGRFTISRDNAKNTVYLQMNSLKPEDTAGYYCAAVGRVDGYRYDYWGQGTQVTVSS”, the “polyreactivity (PSR sort gate)” value is recorded as “high polyreactivity”.
For “QVQLVESGGGLVQAGGSLRLSCAASGRIFYYYAMGWYRQAPVKERELVAAISQRGGRTYYADSVKVRFTISRDNAKNTVYLQMNSLKPEDTAVYYCNAYPVYGRYTHYGYGHWGQGTQVTVSS”, the “polyreactivity (PSR sort gate)” value is given as “high polyreactivity”.
As for “QVQLVESGGGLVQAGGSLRLSCAASGRLFNEYAMGWYRQAAGNVRALVAGITWSGGSTSYADSVKGRFTISRDYAKNTVYLQMIILKPEDTAVYYCAADVYRRLRRYRYFYWGQGTQVTVSS”, the “polyreactivity (PSR sort gate)” value is on record as “low polyreactivity”.
The result for “QVQLVESGGGYVQAGGSLRLSCAASGSIFRGYAMGWSRQAPGKEWELVATIDSSAGSTYYADSVKGRYTISRDNAKNTVYLQMNSLKPEDTAVFYCATDPYGYYYSGYDYWGQGTQVTVSW” reads “low polyreactivity”.
On to “QVQLVESGGGLVQAGGSLRLSCAASGSIFKFNTMGWYRQAPGNERELVAAITRVGSTYYADSVKGRFTISRDNAKNTVYLQMNSLKPEDTAVYYCAVRQRDKFAGGRNDYWGQGTQVTVSS”, for which the “polyreactivity (PSR sort gate)” value is “high polyreactivity”.
As for “QVQLVESGGGLVQAGGSLRLSCAASGSTFRGNAMGWYRQAPWKEREFVASISRRGGRTNYADSVKGRFTISRDNAKNTVYLQMNSLKPEDTAVYYCAAGRYRYKYRYFTAWYGYWGQGTQVTVSS”, the “polyreactivity (PSR sort gate)” value was “high polyreactivity”.
The result for “QVQLVESGGGLVQAGGSLRLSCAASGSIFSLYAMGWYRQAPGKERELVADIRTSTGRTYYADSVKGRFTISRDNAKNTVYLQMNSLKPEDTAVYYCNADEYKSAVSVGYEYWGQGTQVTVSS” reads “high polyreactivity”; that for “QVQLVESGGGLVQAGGSLRLSCAASGLISESYAMGWYRPAPGKERELVAAISSGGSTYYADSVKGRFTISRDNAKNTVYLQMNSLKPEDTAVYYCNASGYKYTYGHAYYYAVDYWGQGTQVTVSS”, “low polyreactivity”.
The result for “QVQLVESGGGLVQAGGILRLSCAASGSKIGYYAMVWYRQAPGKERELVAAISAGDRTYYADSVKGRFTISRDNAKNTVYLQMNSLKPEDTAVYYCAAASYYQSYRYGYWGQGTQVTVSS” reads “high polyreactivity”; that for “QVQLVESAGGLVQAGGSLRLICAASGRTTPIYALGWYRQAPGKERELVASITRGTRTNYADSVKGRFTISRDNAKTTVYLQMNSLKPEDTAVYYCAAVSYSYSLNPYDYWGQGTQVTVSS”, “low polyreactivity”.
Regarding “QVQLVESGGGLVQAGGSLRLSCSASGITFWLYDKGWYIQAPGKERELVARITYSGTSTYYADSVKGRFTISRDNAKNTVYLQMNSLEPEDTAVYYCAADLTYHYPRYITYEYWGQGTQVTVSS”, the “polyreactivity (PSR sort gate)” value was “low polyreactivity”.
Consider “QVQLVESGGGLVQAGGSLRLSCAASGSTFPRNAMGWYRQAPGKERELVAAITSGGSTYYADSVKGRFTISRDNAKNTVYLQMNSLKPEDTAVYYCAKSRSSYPYRTYYYWGQGTQVTVSS”, for which the “polyreactivity (PSR sort gate)” value is “low polyreactivity”.
Then “QVQLVESGGGLVQAGGSLRLTCAASGLTFYFYTMGWYRQAPGKERELVAAIRSAGRTNYADSVKGRFTISRDNAKNTVYLQMNSLKPEDTAVYYCAAISPGYYRIVWYDYWGQGTQVTVSS”, with “high polyreactivity”.
Then “QVQLVESGGGLVQAGGSLRLSCAASGRIFYDNAMGWYRQAPGKERELVAAISYSGDSTYYADSVKGRFTISRDNAKNTVYLQMNSLKPEDTAVYYCAAVYISQGAFAYDYWGQGTQVTVTS”, with “low polyreactivity”; and “QVQLVESGGGLVQAGGSLRLSCAASGSIFVGNAMGWYRQAPGKERELVAAINSGGSTYYADSVKGRFTISRDNAKNTVYLQMNSLKPEDTAVYYCAAEGTYSYYLYEYWGLGTQVTVSS”, with “low polyreactivity”.
As to “QVQLEESGGGLVQAGGRLRLSCAASGFTFGRYTMGWYRHAPGKERELVAAITWTGGRTYYADSVKGRFTISRDNAKNTVYLQMNSLKPEDTAVYYCAADTTIIIAQSEDDLWGQGTQVTVSS”, the “polyreactivity (PSR sort gate)” value is on record as “high polyreactivity”.
As for “QVKLVESGGALVQAGGSLRLSCPASGRTFGQTAMGWYRQAPGKERELVAAITWSDDDTYYADSVKGRFTISRDNAKNTVYLQMNSLKPEDTAVYYCAATYPYRQYDYWGQGTQVTVSS”, the “polyreactivity (PSR sort gate)” value is “low polyreactivity”.
Then “QVQLVESGGGLVQAGGSLSLSCAASGFTIYYYAMGWYRQAPGKERELVASITSGGSTYYADSVKGRFTISRDNAKNTVYLQMNSLKPEDTAVYYCAKTRFHSKEGDYWGQGTQVTVSS”, with “low polyreactivity”; and “QVQLVESAGGLVQAGGSLRLSCAASGITIVRYARGWSRQAPGKERELVAAINRSGGSTYDADSVKGRFTISRDNAKNTVYLQMNSLKPEDTAVYYCAARLYGKYDPPGYYYWGQGTQVTVSS”, with “high polyreactivity”.
In the case of “QVQLVDSGGGLVQAGGSLRLSCASSGSTFVLYAMGWYRQAPGKERELVAAITWSGDDTYYADSVKGRFTISRDNAKNTVYLQMNSLKPEDTAVYYCAAAYADWGQGTQVTVSS”, the “polyreactivity (PSR sort gate)” value is “low polyreactivity”.
As to “QVQLVESGGGLVQAGGSLRLSCAASGRTFQYYAMGWYRQAPGKERELVAAISWSGGSTYYADSVKGRFTISRDNAKNTVYLQMNSLKPEVTAVYYCAASFRGQIVGYWGQGTQVTVSS”, the “polyreactivity (PSR sort gate)” value was “high polyreactivity”.
For the sequence “QVQLVESGGGLVQAGGSLRLSCAASGSTFYNNAMGWYRQAPGKERELVAAITSSVGSTHYADSVKGRFTISRDNAKNTVYLQMNSLKPEDSAVYYCNARGRLYGHLYDYWGQGTQVTVSS”, the “polyreactivity (PSR sort gate)” value is listed as “low polyreactivity”.
“QFQLVESGGGLVQAGGSLRLSCAASGFIFKPYTMGWYRQAPGKERELVATITFSGGSTYYADSVKGRFTNSRDNAKNTVYLQMNSLKPEDTAVYYCAAPRFYRGYAIYDYWGQGTQVTVSS”: the “polyreactivity (PSR sort gate)” value is “low polyreactivity”.
As for “QVQRVESGGGLVQAGGSLRLSCPASGSTKFNAMGWNRQPPGKERELVATITANGDSTYYADSVKGRFTISRDNAKNTVYLQMNSLKPEDTAVYYCNADAYIRMDSWGQGTQVTVSS”, the “polyreactivity (PSR sort gate)” value is recorded as “low polyreactivity”.
The result for “QVQLVESGGGLVQAGGSLRLSCAASGRTFYNAMGWYRPAPGKERELVAAITTGGGTKYADSVKGRCTISRDNAKNTVYLQMNSLKPEDTAVYYCNTDEWYHFYHGAHKYDYWGQGTQVTVSS” reads “low polyreactivity”; that for “QVQLVESGGGLVQSGGSLRLSCAASGRIFYYNAMGWYRQAPGKERELVAAITSSSGSSTYYADSVKGRFTISRDNAKNTVYLQMNSLKPEDTAVYYCAADATFIIRYLSRSDYWGQGTQVTVSS”, “low polyreactivity”.
“QVQLVESGGGLVQAGGSLRLSCAASGSTFRYYAMGWYRQAPGKESELVAAITSSGTSTYYADSVKGRFTISRDNAKNTVYLQMNSLKPEDTAVYYCAAPPVYKWVSSRYDYWGQGTQVTVSS”: the “polyreactivity (PSR sort gate)” value is recorded as “low polyreactivity”.
Regarding “QVQLVESGGGLVQAGASLRLSCAASGRTFGKYAMGWYRQAPGKERELVAAITTRVVITYYADSVKGRFTISRDTAKITVYLQMNSLKPEDSADYYCAAVSIYWGQGTQVTVSS”, the “polyreactivity (PSR sort gate)” value is recorded as “low polyreactivity”.
